# Reference: a protein production outcome set (Wang et al. 2014)
# Experiment: label from the status in PepcDB records
row,Sequence,protein production
1,MRTGRSPPTPSTRCAVALVCSWSLIRVVRLSMARRSRCRLGMPSGVPGRCRRFSMTLTSLSGSTWNTRLLTAPISVRSCCTQPSWVVSRGLLVCLPSITPVLSRYGSLRSRCAWCRWLRPLTTTSPGSQRCWVPAGFGSRRTCPRTGLARRSATPLRTRCLSSSSRAVRMPRLVPYPSGCVMALRSMASSWTRQCVSLQLGTVGTATTIRLPRRCAESLMTEDYRLEFAEELVGVPDPFRRFWTPYRMAYISGENKPRGNRPEDGCPFCRAPQRSDEDALIVHRGEHCYVIMNLYPYGPGHMLVCPYRHVAGYVDATQDEVVEMAELTQDAIRTLQEVSRPQGFNVGINQGASGGAGVAAHLHQHVIPRWTGDTNFLPIVAGVRAVPQLLGDGRQMLADAWVGHA,failed
2,MAQGNPLTPEEIELLHAGDEENDNTDTLMVIRVPNDGSSATAISIPRDTYVHDENVGNLKINGVYRAYKNRKASELVNSGESDQKHIDELSKEAGRKALISSISDLTGVTVDHYAEVGLLGFVLLTNAVGGVDVCLNNDVYDEFSGADFKAGQQTLRDGQALAFVRQRHGLPRGDLDRIVRQQAFMASLVAKVLSSGTLTNPSKLSDLGEAVSRSVVIDKNWDVMSFANQLQNLAGGNVKFNTIPVTSIDGVGDYGESVVTVDKNQVHQFFDRLLNGNNGEETPTSDSEAPAENPHTSTTIDVLNATSTTGLASQVAGHLSAKHYTIGNIGNALEGMYHESQIVAADPNNEAVKAIAAELGGLPITQRNDLEHHHHHH,failed
3,MDNSGKEAEAMALLAEAERKVKNSQSFFSGLFGGSSKIEEACEIYARAANMFKMAKNWSAAGNAFCQAAQLHLQLQSKHDAATCFVDAGNAFKKADPQEAINCLMRAIEIYTDMGRFTIAAKHHISIAEIYETELVDIEKAIAHYEQSADYYKGEESNSSANKCLLKVAGYAALLEQYQKAIDIYEQVGTNAMDSPLLKYSAKDYFFKAALCHFCIDMLNAKLAVQKYEELFPAFSDSRECKLMKKLLEAHEEQNVDSYTESVKEYDSISRLDQWLTTMLLRIKKTIQGDEEDLR,not failed
4,MLIGIDLGTTNSAVALWHEGEARLVPNSLGALLTPSAVSVLQDGTTLVGAAAFERMAAKDGAAATSFKRLLGTDRKVRLGRKEFSAEDLSALVLQSLCADVEAHTGERPTEAVITVPAYFNDRQRKATRRAGELAGLSVRRLINEPTAAALAFGLKDKAEREPFLVFDLGGGTFDVSIVEMFEGIVEVRASAGDNRLGGDDFNGALAMAVKGRLDPDERLATLGEARAQALLLQAAERTRRALTDAPEAEFAVTAGDERLSTTVTASEFEAQAEGLLRRLRDPVVRALRDSQIDAASLSEIVLVGGATRMPLVRKAITRLFGRFPNASVHPDHAVALGAAIQGGLIARDGGLEEIRITDVCPFTLGIETAEHSVRGTIQQGLFSPIIERNTPVPVSRSGVYSTMGDGQKQIAVHIYQGEAREVSGNVKLGTLSVPVPSRPAGEVSIDVRFSYDSSGLLEVDVEVPLTGTRHNLVIIDEEDRKAAKDLDARRKALAALKHHPREEAANQLLLARAERCYEEFLGDVRAVIGGRTLSFTTALDSQDPRRIADAAAELAELLDMLEANPVL,failed
5,DRFPVTPVSREDLAGVLEAVERLRHWRPAAAGAWAVDYRGMLEGVHAQGVFDDGHWADLLRLLELSGAPREFGHGDLVLANVVRSRGRQVLIDWASSALYLPGLDLAQLWMLLGDVPGARARIEVEVADRADDRDGMMPFLVNLTLLLYRERRAHRRF,failed
6,MLAKSLGWLLAVSRRNYCMGSRTALASRPWSKHLADPQIDPTAYVHSFANVVGDVRIQPGVSVAPGSSIRADEGTPFWIGGNVLIQHGVVIHGLETGRVLGDDDQEYSVWIGPGTCVAHLALVHGPVYLGANCFIGFRSTVLNARVGDGAVVMMHSLVQDVEIPPNKLVPSGAMITQQHQADSLPDVQAGDRHFVQQIAAMHGQSASPTQGTDPTVCVLPESLPAVTPVTETPYINSIDNMSINSDITNQIRSLLAQGYGIGAEHANERRFKTKSWQSCGTADGFRPDQVIATVEGWLQEFAGEYVRLIGIDQGAKRRVVEVIIQRPGDVPGSPSRGTTTTKALSSGGSGRSAVAHQTGNLAGDSANQLRALLHQGYKIGLEYASARRFKTGSWLTGGTIGSHREGEALQELNRFLADHTNEYVRIIGIDPAGKRRVAEIVVHRPNGNGNGKPSSSSSSVGYKSAPVSSAGGSSAGGLTPEVIATVRGLLANGHSIGTEHTDKRRFKAKSWDTCPTIDGGREAEVLAKLEACLADHAGEYVRIIGIDRVGKRRVLEQIIQRPGDNVVAGRSPSSSSASTSSSASSNGFGSGNGGGYSNSAVRLDNSVVTQVRSLLAQGYKIGTEHTDKRRFKAKSWQSCAPITSTHESEVLRALEGCLADHNGEYVRLLGIDPTAKRRVLETIIQRP,failed
7,MTYKDYTGLDRTELLSKVRHMMSDKRFNHVLGVERAAIELAERYGYDKEKAGLAALLHDYAKELSDDEFLRLIDKYQPDPDLKKWGNNIWHGLVGIYKIQEDLAIKDQDILAAIAKHTVGSAQMSTLDKIVYVADYIEHNRDFPGVEEARELAKVDLNKAVAYETARTVAFLASKAQPIYPKTIETYNAYIPYLD,not failed
8,MRLSFGITSKLFVALFALSMVVALAMGAAVRWRFDTNFLDYVNAREAERMAVFAQSIESVYAEHGNWGVLRNDRQAWYRLIRREIGRTHAGPFGGPRGDAEPVPPFAPPPGDVPPPGLPPPPPDAGDRPPQHPPGEGPGMHPPIWLLDAGRVPIVGDGPPPGPGSQWHALHHNGQTVGWLATPQRMHVPEGADQAFLAQQLRATWIIAALSVLLAAGVAILLARGVLAPMRRLAHATRRMAEGDYAARVDVHSGDEIGHLADDFNRLAETLEANQKMRRQLTADISHELRTPLAVLRGELEALEDGVRALTPASLTSLQAEVGTLSKLIDDLYELSLADVGALAFHMESIDLADTVCSAAQGFTPRLMDKRIALQLDLPTGPSRDAAIQGDPQRLRQLMQNLLENTLRYTDAGGTLRIHVHRAGAWWCLDVQDSAPGVPEAMLPRVFDRLFRADPSRGRAQGGAGLGLSLCQTIVQTHGGTIDARPSPLGGLWIAIRLPAANSSVADHDPDR,failed
9,MPQPRRSTGSKLTYRPVGYVNAMSEQDEVPSEDRRKYEFRKVIEELKDYEGSGTQLVTIYIPPDKQISDVVAHVTQEHSEASNIKSKQTRTNVQDALTSIKDRLRYYDTFPPDNGMVVFSGAVDSGGGRTDMVTEVLESPPQPIESFRYHCDSAFLTEPLAEMLGDKGLYGLIVLDRRESNVGWLKGKRVQPVKSAESLVPGKQRKGGQSAQRFARLRLEAIDNFYQEVAGMADDLFVPKRHEIDGILVGGPSPTKDEFLDGDYLHHELQDKVLGKFDVSYTDESGLSDLVDAGQAALAEADLMDDKSDMEEFFEELNGGKLATYGFEQTRRNLIMGSVDRLLVSEDLREDVVIYECPNDHEEYETIDRRNTSPEHTCSDCGEEATEVDREDAIDHLMSIADQRGTETHFISTDFEKGEQLLTAFGGYAGILRYSTGV,failed
10,ARQVTPGQVMVASTVGKLSALLAADLSDEQAQRLGLDTLLPLRESDGPTLFCFHPASGFAWQFSVLARYLSPRWSITGIQSPRPQGPMASAASLDEVCEHHLQTLLAQQPHGPYYLFGYSLGGTLAQGIAARLRQRGEAVAFLGLLDTWPPETQNWAEKEANGLDPEVLAEIDREREAFLAAQQGQASGELFSAIEGNYADAVRLLTTAHSAKFDGKATLFVAEKTRQEGMDPQVVWGPWVGELEVFSQNCAHVDIISPQAFEAIGPVVREILG,not failed
11,MPGAMHDEPDHPELSITVPTLNEAEGLERFFAMLSAQQGVRFELVIADGGSTDGTPESARRLAAATPFAATVIETGRGRGRQMNAGAAAAAGDTLLFLHADCAFPDPLALRTALDAFTQTVAAGGSHRVAGHFRLRFERTDSAPSLPYYFYEWKARLHRPGCTHGDQGLLLGRRFFAEAGPFDESFPILEDVGLAERIAALGEWLLLPAEIVTSARRFEAEGLRERQTLNALLMNFAAMGWDPFLAELPRLYQSQDRAGRLLLGPVLRLIARLLRPLPRRERGRLWRETGRYVRANAWQIPFFLDVRRHFRQGTPVGEGETPRLDLHDRIFDRLTENGAGHRATALLVWIWFRLSLLREPLTPPAARNPEGNGSLEHHHHHH,not failed
12,MKLQLYVLRTVATRILGAALILMSVLQILDLLDVTSDILDRGLGMAGVGYYAALRLPRLFEQVAPIAVLAGGLFAFSQLARESAIVAMRASGISGYRIVGMAVPAAVAVMLLDALCGQVLAPRADPTLADWWRNTTPVAERKEPVPRTFRAGADLVIGANASADGRTITGVTIFRRDSKGILVEKVEAPAARYDGKAWTLEQPKTTRFAGDLSQASTAAATSWPTALRPQDVQGLFGDDSMPTAASARRALENGGSDRPESFYATHLQAAFASPFVSLVMLLLSAPVALANFRSGQGAVLLTGGLAAGLMFLVANGMLTALGESGALTPFLAVWAAPAIFGALAVRTFLALEG,failed
